Reference: US20220289850 (published 2022)

Biological target: T1, human integrin avb5 (human, UniProt P06756)
T1 chain 1: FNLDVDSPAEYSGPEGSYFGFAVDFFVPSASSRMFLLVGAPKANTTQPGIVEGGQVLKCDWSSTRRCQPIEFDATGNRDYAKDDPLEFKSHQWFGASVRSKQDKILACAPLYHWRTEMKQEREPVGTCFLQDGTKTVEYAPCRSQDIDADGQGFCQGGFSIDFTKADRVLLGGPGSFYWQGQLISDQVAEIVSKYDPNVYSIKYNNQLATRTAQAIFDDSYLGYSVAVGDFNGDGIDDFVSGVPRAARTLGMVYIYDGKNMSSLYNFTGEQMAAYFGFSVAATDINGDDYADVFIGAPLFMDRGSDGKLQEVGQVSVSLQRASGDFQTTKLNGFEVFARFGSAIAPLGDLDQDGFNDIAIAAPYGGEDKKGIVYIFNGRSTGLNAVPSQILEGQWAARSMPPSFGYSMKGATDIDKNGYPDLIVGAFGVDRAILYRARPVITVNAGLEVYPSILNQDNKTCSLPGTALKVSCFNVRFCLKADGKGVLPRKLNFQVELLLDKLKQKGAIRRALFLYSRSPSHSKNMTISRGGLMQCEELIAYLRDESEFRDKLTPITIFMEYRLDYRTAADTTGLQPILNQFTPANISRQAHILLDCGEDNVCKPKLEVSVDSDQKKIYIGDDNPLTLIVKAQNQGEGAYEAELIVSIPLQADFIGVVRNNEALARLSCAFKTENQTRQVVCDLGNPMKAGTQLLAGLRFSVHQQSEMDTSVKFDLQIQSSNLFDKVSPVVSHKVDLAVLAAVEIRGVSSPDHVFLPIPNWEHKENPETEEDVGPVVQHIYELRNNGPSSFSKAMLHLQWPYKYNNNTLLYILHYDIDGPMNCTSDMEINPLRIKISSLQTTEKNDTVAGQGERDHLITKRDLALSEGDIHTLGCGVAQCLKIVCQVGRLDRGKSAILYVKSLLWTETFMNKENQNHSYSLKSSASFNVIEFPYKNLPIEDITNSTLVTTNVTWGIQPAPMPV
T1 chain 2: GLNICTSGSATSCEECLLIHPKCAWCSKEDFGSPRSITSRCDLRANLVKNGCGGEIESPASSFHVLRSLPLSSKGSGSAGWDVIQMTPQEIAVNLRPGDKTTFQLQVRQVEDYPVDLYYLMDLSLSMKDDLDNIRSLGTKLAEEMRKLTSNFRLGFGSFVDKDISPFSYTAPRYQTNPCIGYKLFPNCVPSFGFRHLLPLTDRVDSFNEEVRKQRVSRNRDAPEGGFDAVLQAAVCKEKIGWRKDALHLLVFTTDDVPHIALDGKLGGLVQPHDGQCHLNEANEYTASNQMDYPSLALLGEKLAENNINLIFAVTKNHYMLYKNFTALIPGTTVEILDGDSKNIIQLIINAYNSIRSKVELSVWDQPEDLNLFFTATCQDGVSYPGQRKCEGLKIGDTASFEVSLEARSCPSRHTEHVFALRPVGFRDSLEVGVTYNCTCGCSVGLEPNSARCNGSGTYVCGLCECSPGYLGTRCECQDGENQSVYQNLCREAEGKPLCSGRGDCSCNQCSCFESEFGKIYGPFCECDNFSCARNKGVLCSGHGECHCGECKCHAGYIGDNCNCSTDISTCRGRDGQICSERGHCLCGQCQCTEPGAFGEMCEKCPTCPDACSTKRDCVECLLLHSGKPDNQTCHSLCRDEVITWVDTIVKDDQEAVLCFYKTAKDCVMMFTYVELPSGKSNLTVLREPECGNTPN
Assay: FACS HEK cells

B1: ADWA11 2.4 IgG (antibody)
chain 1: EVQLVESGGGLVQPGGSLRLSCAASGFNIKDYYMNWVRQAPGKGLEWVGWIDPDQGNTIYEPKFQGRFTISADTSKNSAYLQMNSLRAEDTAVYYCARRLLMDYWGQGTLVTVSSASTKGPSVFPLAPSSKSTSGGTAALGCLVKDYFPEPVTVSWNSGALTSGVHTFPAVLQSSGLYSLSSVVTVPSSSLGTQTYICNVNHKPSNTKVDKKVEPKSCDKTHTCPPCPAPEAAGAPSVFLFPPKPKDTLMISRTPEVTCVVVDVSHEDPEVKFNWYVDGVEVHNAKTKPREEQYNSTYRVVSVLTVLHQDWLNGKEYKCKVSNKALPAPIEKTISKAKGQPREPQVYTLPPSREEMTKNQVSLTCLVKGFYPSDIAVEWESNGQPENNYKTTPPVLDSDGSFFLYSKLTVDKSRWQQGNVFSCSVMHEALHNHYTQKSLSLSPGK
chain 2: DIQMTQSPSSLSASVGDRVTITCRSTKSLSHFNGNTYLFWYQQKPGKAPKRLIYYMSSLASGVPSRFSGSGSGTDFTLTISSLQPEDFATYYCQQSLEYPFTFGGGTKVEIKRTVAAPSVFIFPPSDEQLKSGTASVVCLLNNFYPREAKVQWKVDNALQSGNSQESVTEQDSKDSTYSLSSTLTLSKADYEKHKVYACEVTHQGLSSPVTKSFNRGEC
- binding result: no binding
